Test results from publication PMC5137425.

What was measured:
[1] = target: Human ubiquitin (monoUb) (human) (UniProt P0CG48); assay: NMR titration
[2] = target: C. elegans TDP2 UBA domain, CeTDP2 (41-100) (C. elegans) (UniProt Q9XWG3); assay: NMR titration
[3] = target: C. elegans TDP2 UBA domain, CeTDP2 (41-100) (C. elegans) (UniProt Q9XWG3); assay: fluorescence polarisation

Substance | Kd [1] [µM] | Kd [2] [µM] | Kd [3] [µM]
C. elegans TDP2 UBA domain, CeTDP2 (41-100) (from UniProt Q9XWG3 41-100) (domain or fragment) | 100 | – | –
K63-linked diubiquitin (from UniProt P0CG48 1-76) (complex) | – | 10.2 | –
K48-linked diubiquitin (from UniProt P0CG48 1-76) (complex) | – | – | 8.4
Human ubiquitin (monoUb) (from UniProt P0CG48 1-76) (natural protein) | – | 120 | 40
